Data published in PMC6294707 (Molecular and cellular neurosciences, 2018).

T1: SAP90/PSD-95 associated protein 3 (endogenous, mouse brain) (mouse (endogenous in striatum), UniProt Q6PFD5 1-977)
T1 sequence (looked up): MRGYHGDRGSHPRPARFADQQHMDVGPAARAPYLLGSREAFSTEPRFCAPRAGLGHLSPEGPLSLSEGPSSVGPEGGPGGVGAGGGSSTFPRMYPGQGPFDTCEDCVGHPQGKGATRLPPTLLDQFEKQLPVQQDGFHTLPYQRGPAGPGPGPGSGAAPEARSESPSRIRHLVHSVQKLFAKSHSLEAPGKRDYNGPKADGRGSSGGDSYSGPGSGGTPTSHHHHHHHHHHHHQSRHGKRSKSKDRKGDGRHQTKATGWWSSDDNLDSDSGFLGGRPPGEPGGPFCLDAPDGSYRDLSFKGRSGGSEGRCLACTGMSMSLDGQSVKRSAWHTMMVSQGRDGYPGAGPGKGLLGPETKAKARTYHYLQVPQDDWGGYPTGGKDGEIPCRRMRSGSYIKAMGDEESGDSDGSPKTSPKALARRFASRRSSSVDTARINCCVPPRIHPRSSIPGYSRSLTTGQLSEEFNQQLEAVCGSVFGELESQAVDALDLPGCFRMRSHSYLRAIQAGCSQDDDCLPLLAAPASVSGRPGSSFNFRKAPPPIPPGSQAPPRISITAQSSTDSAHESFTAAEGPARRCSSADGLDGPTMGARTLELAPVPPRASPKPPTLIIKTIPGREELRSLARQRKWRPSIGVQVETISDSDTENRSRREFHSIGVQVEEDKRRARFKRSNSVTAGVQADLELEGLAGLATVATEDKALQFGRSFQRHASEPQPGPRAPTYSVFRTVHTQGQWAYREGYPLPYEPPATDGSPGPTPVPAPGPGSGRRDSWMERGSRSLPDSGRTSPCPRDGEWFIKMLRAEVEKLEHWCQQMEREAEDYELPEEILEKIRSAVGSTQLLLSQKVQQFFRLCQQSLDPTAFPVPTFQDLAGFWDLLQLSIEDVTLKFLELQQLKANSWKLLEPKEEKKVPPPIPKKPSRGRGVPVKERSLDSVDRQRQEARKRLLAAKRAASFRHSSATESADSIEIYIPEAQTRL


Tests used:
[1] = target: HA-tagged spinophilin (human, full-length) (human, UniProt Q96SB3 1-817); test: co-IP
HA-tagged spinophilin (human, full-length), sequence (Q96SB3 whole entry): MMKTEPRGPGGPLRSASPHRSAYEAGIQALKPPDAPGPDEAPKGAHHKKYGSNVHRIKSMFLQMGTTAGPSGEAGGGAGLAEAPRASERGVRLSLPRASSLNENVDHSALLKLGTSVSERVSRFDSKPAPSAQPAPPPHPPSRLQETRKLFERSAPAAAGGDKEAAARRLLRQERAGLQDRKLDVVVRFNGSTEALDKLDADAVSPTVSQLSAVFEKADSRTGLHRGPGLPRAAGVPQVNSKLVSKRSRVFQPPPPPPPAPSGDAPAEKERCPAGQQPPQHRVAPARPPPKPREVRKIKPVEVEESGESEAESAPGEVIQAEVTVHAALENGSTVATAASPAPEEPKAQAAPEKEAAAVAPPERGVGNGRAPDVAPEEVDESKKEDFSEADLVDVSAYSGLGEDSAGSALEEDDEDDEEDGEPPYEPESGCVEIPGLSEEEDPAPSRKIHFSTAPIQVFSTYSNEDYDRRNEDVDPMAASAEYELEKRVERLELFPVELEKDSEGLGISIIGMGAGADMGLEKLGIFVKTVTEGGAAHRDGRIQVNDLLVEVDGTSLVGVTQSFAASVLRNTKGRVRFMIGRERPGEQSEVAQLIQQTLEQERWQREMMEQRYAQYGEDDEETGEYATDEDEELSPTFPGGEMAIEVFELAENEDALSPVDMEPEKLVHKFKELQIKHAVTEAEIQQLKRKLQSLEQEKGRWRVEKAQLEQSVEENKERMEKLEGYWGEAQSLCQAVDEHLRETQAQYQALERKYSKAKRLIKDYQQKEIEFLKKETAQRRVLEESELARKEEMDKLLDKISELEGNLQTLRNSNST

[2] = target: T1, SAP90/PSD-95 associated protein 3 …; test: co-IP

| fold change of association, PKCbeta overexpressed and activated over control [1] | fold change of association, mGluR5 overexpressed over control [1] | fold greater association, WT over SAPAP3 KO [2] | Binder |
| --- | --- | --- | --- |
| ~3.3 fold | ~12 fold |  | V5-tagged SAPAP3 (rat) (natural protein, UniProt P97838 1-977, looked up) MRGYHGDRGSHPRPARFADQQHMDVGPAARAPYLLGSREAFSTEPRFCAPRAGLGHLSPEGPLSLSEGPSSVGPEGGPGGVGAGGSSSTFPRMYPGQGPFDTCEDCVGHPQGKGATRLLPTFLDQFEKQLPVQQDGFHTLPYQRGPAGPGPGPGSGAAPEARSESPSRIRHLVHSVQKLFAKSHSLEAPGKRDYNGPKAEGRSSSGGDSYSGPGSGGPPTSHHHHHHHHHHHHQSRHGKRSKSKDRKGDGRHQTKATGWWSSDDNLDSDSGFLGGRPPGEPGGPFCLDAPDGSYRDLSFKGRSGGSEGRCLACTGMSMSLDGQSVKRSAWHTMMVSQGRDGYPGAGPGKGLLGPETKAKARTYHYLQVPQDDWGGYPTGGKDGEIPCRRMRSGSYIKAMGDEESGDSDGSPKTSPKALARRFASRRSSSVDTARINCCVPPRIHPRSSIPGYSRSLTTGQLSEEFNQQLEAVCGSVFGELESQAVDALDLPGCFRMRSHSYLRAIQAGCSQDDDCLPLLAAPASVSGRPGSSFNFRKAPPPIPPGSQAPPRISITAQSSTDSAHESFTAAEGPARRCSSADGLDGPTMGARTLELAPVPPRASPKPPTLIIKTIPGREELRSLARQRKWRPSIGVQVETISDSDTENRSRREFHSIGVQVEEDKRRARFKRSNSVTAGVQADLELEGLAGLATVATEDKALQFGRPFQRQASEPQPGPRAPTYSVFRTVHTQGQWAYREGYPLPYEPPATDGSPGPPPVPAPGPGSGRRDSWMERGSRSLPDSGRTSPCPRDGEWFIKMLRAEVEKLEHWCQQMEREAEDYELPEEILEKIRSAVGSTQLLLSQKVQQFFRLCQQSLDPTAFPVPTFQDLAGFWDLLQLSIEDVTLKFLELQQLKANSWKLLEPKEEKKVPPPIPKKPSRGRGVPVKERSLDSVDRQRQEARKRLLAAKRAASFRHSSATESADSIEIYIPEAQTRL |
|  |  | ~3 fold | spinophilin (endogenous, mouse brain) (natural protein) not shown |
